# Reference: patent US20200140868
# T1: Recombinant FANCE (149-536) wild-type, Q9HB96
# T1 chain: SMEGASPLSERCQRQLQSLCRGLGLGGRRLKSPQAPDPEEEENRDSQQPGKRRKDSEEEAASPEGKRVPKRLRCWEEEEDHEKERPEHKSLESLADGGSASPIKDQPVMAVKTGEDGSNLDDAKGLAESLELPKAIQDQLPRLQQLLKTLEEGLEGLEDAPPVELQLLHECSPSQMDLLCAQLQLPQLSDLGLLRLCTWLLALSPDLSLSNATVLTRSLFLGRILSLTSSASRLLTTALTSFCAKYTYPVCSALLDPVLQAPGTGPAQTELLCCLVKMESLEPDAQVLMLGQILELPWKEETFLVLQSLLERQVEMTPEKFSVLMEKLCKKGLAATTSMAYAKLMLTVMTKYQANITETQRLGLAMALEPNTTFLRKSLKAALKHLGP
# B1: purified recombinant Chk1 (Upstate Technology) (protein)
# chain: MAVPFVEDWDLVQTLGEGAYGEVQLAVNRVTEEAVAVKIVDMKRAVDCPENIKKEICINKMLNHENVVKFYGHRREGNIQYLFLEYCSGGELFDRIEPDIGMPEPDAQRFFHQLMAGVVYLHGIGITHRDIKPENLLLDERDNLKISDFGLATVFRYNNRERLLNKMCGTLPYVAPELLKRREFHAEPVDVWSCGIVLTAMLAGELPWDQPSDSCQEYSDWKEKKTYLNPWKKIDSAPLALLHKILVENPSARITIPDIKKDRWYNKPLKKGAKRPRVTSGGVSESPSGFSKHIQSNLDFSPVNSASSEENVKYSSSQPEPRTGLSLWDTSPSYIDKLVQGISFSQPTCPDHMLLNSQLLGTPGSSQNPWQRLVKRMTRFFTKLDADKSYQCLKETCEKLGYQWKKSCMNQVTISTTDRRNNKLIFKVNLLEMDDKILVDFRLSKGDGLEFKRHFLKIKGKLIDIVSSQKIWLPAT
# Target: T1, Recombinant FANCE (149-536) wild-type, …
protein,measurement,value
B1,"in vitro kinase assay, Western blot with anti-pT346-FANCE and anti-pS374-FANCE",the recombinant FANCE (rFANCEwt) protein phosphorylated by Chk1 in vitro
